Target: EGFR wild-type extracellular domain (human, UniProt P00533 25-645)
Assay: UV (254 nm) cross-linking MALDI-MS; 1:1 molar; peptide 495-500 (domain IV) linked to AGGC and GAGGC; RT-qPCR: 15 min 37 C, 100 ug/ml polyinosine, DPBS washes; flow cytometry: DPBS, 37 C, 30 min; confocal: DMEM without FBS; UV cross-linking buffer not given
Conditions: protein: recombinant

Does GCCUUAGUAACGUGCUUUGAUGUCGAUUCGACAGGAGGC (structured_RNA, 2'F-pyrimidines (2'F-C, 2'F-U)) [CL4] bind?
Result: binds

From publication PMC4741949, “Aptamer targeting EGFRvIII mutant hampers its constitutive autophosphorylation and affects migration, invasion and proliferation of glioblastoma cells”
